Laboratory results published in patent US20240352121A1, “LAIR-1 AGONISTIC ANTIBODIES AND METHODS OF USE THEREOF” (NEXTCURE, INC., priority 2023, published 2024).

Assays:
MV4-11 cells = experiment: MV4-11-luciferase cell-derived xenograft (CDX) model; format: in vivo, NSG mice
Procedure: 2e6 luciferase-expressing MV4-11-Luc or THP-1-Luc cells were suspended in sterile PBS and implanted into NSG mice via tail-vein injection. […] AML cell proliferation was monitored by weekly i.p. injection of D-Luciferin, immediately followed by IVIS bioluminescent imaging and quantification of luminescent signal. […] Imaging Perkin Elmore IVIS Lumina XRMS Series III.
NSG mice were injected with 2e6 THP-1 luciferase cells or 2e6 MV4-11-luciferase cells via tail vein injection. Leukemia progression was quantified by i.p. injection of 100 μL bioluminescent substrate and IVIS imaging 8 minutes post injection. Progression was assessed weekly staring on Day 7 post-challenge. 10 mg/kg mab treatment was performed by i.p injection starting on day 8 and continuing twice a week until the end of the study. For the subcutaneous engraftment model, NSG mice were subcutaneously injected on the right flank with 5e6 MV4-11-Luc-LAIR-1^OE cells. Mice were treated by weekly i.p. injection of 10 mg/kg mAb. Tumor growth was measured by calipers twice weekly until end point.

human LAIR-1 = target: T1, human LAIR-1 (Homo sapiens, UniProt Q6GTX8, D63E/L98P/R92S/S123T); experiment: Cell binding to human LAIR-1 cells by flow cytometry; conditions: UT-140 cells
T1 construct: expressed in transfected cells
T1 sequence (Q6GTX8 22-287 D63E/R92S/L98P/S123T): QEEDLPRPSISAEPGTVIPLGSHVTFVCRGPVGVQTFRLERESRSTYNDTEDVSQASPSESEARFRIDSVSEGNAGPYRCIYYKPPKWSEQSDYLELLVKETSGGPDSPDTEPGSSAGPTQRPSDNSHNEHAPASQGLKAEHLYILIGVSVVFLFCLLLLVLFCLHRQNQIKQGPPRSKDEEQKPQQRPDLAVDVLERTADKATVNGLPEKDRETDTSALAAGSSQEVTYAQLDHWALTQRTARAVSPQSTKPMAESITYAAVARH
Procedure: FIGS. 21A-21B display LAIR-1 binding properties including h11B3 LAIR-1 mAbs binding to cells expressing human LAIR-1 or cynomolgus LAIR-1 as measured by flow cytometry. The h11B3 LAIR-1 mAbs include a variable light chain of SEQ ID NO: 16 and a variable heavy chain of SEQ ID NO: 21, as shown for Anti-LAIR-1 Variant 6 in Table 1 herein. […] Cells were incubated for 30 min on ice with titrated concentrations of h11B3. AF647 conjugated secondary antibody was used at 1:2000 dilution. […] Cells were incubated for 30 min on ice with titrated concentrations of h11B3. AF647 conjugated secondary antibody was used at 1:2000 dilution.
For cell binding assays, 5e4 UT-140 cells or mouse LAIR-1-transfected 293T cells per well were plated in 200 μL PBS in a 96-well round bottom plate, centrifuged for 4 minutes at 500×g for a single wash, and blocked for 10 minutes on ice with flow cytometry buffer (PBS+2% FBS+0.1 mM EDTA) containing 1:50 dilution of TruStain™ Fc block (Biolegend, San Diego, CA). Cells were subsequently stained for 30 min on ice with titrated concentrations of soluble AF647-labeled LAIR-1 mAb or AF647-labeled isotype control. Cells were then washed 3 times as previously described and binding was measured by flow cytometry using an Attune NXT flow cytometer. […] GFP expression was measured by flow cytometry using an Attune NXT Flow Cytometer.

B1: LAIR-1 mAb: humanized agonist anti-LAIR-1 mAb, IgG1 backbone; h11B3 VL-2 (SEQ ID NO: 16), h11B3 VH-3 (SEQ ID NO: 27) (antibody, V domains shown)
VH: EVQLVESGGGLVQPGGSLKLSCAASGFTFNTNAMYWVRQAPGKGLEWVGRIRSKSSNYATYYAASVKGRFTISRDDSKNTLYLQMNSLKTEDTAVYYCVRGGSGFFAYWGQGTLVTVSS
VL: DIQMTQSPSSLSASLGDRVTITCKASEDIYIRLAWYQQKPGKAPRLLISTATSLETGVPSRFSGSGSGTDYTFTISSLQPEDIATYYCQQYWSTPYTFGGGTRLEIK
modifications: IgG1 constant regions; Synthetic: h11B3 VH-3; Synthetic: h11B3 VL-2
- leukemic cell growth in vivo (MV4-11 cells; 10 mg/kg i.p. twice a week): inhibited leukemic cell growth
- inhibition of LAIR-1 OE AML growth compared to LAIR-1 WT (MV4-11 cells; MV4-11 LAIR-1 OE vs WT cells): more strongly inhibiting
- tumor burden (MV4-11 cells; biweekly dose of 10 mg/kg, flow cytometry of spleen and bone marrow): reduce tumor burden
- AML cells in the blood, spleen, and bone marrow (MV4-11 cells; mouse, in vivo): nearly absent
- percentage of dead MV4-11 cells in blood, spleen, and bone-marrow (MV4-11 cells; mouse, in vivo): increased
- MV4-11 in vivo growth, monotherapy (MV4-11 cells; physiologically relevant doses, 10 mg/kg NC525, 100 mg/kg VEN, 0.5 mg/kg AZA): significantly better activity than AZA monotherapy
- binding to human LAIR-1 (human LAIR-1): specifically binds
